Experimental data published in patent publication US11306156.
Values belong to the substance of their own block, whether it stands above or below them.

Key:
[1] = biological target: D3H44 light chain Q124E_V133D_S176L, N-terminal HA or FLAG tag; assay: LCCA, SPR of light chain tags, L1:L2 DNA 1:3 norm. to 1:1; other light chain m17
[2] = biological target: D3H44 light chain Q124R_Q160K_T178R, N-terminal HA or FLAG tag; assay: LCCA, SPR of light chain tags, L1:L2 DNA 1:3 norm. to 1:1; other light chain m27
[3] = biological target: D3H44 light chain Q124E_V133D_S176L, N-terminal HA or FLAG tag; assay: LCCA, SPR of light chain tags, L1:L2 DNA 1:9 norm. to 1:1; other light chain m17
[4] = biological target: D3H44 light chain Q124R_Q160K_T178R, N-terminal HA or FLAG tag; assay: LCCA, SPR of light chain tags, L1:L2 DNA 1:9 norm. to 1:1; other light chain m27
[5] = biological target: D3H44 light chain Q124E_V133Y_T180E, N-terminal HA or FLAG tag; assay: LCCA, SPR of light chain tags, L1:L2 DNA 1:3 norm. to 1:1; other light chain m14
[6] = biological target: D3H44 light chain Q124R_T178R, N-terminal HA or FLAG tag; assay: LCCA, SPR of light chain tags, L1:L2 DNA 1:3 norm. to 1:1; other light chain m22
[7] = biological target: D3H44 light chain Q124E_V133E, N-terminal HA or FLAG tag; assay: LCCA, SPR of light chain tags, L1:L2 DNA 1:3 norm. to 1:1; other light chain m17
[8] = biological target: D3H44 light chain Q124R, N-terminal HA or FLAG tag; assay: LCCA, SPR of light chain tags, L1:L2 DNA 1:3 norm. to 1:1; other light chain m18
[9] = biological target: D3H44 light chain Q124R_Q160K_T178R, N-terminal HA or FLAG tag; assay: as above
[10] = biological target: D3H44 light chain Q124E_V133E, N-terminal HA or FLAG tag; assay: LCCA, SPR of light chain tags, L1:L2 DNA 1:3 norm. to 1:1; other light chain m24
[11] = biological target: D3H44 light chain Q124E_V133E, N-terminal HA or FLAG tag; assay: LCCA, SPR of light chain tags, L1:L2 DNA 1:9 norm. to 1:1; other light chain m17
[12] = biological target: D3H44 light chain Q124R_Q160K_T178R, N-terminal HA or FLAG tag; assay: LCCA, SPR of light chain tags, L1:L2 DNA 1:9 norm. to 1:1; other light chain m18
[13] = biological target: D3H44 light chain Q124E_S131T_T178F_T180E, N-terminal HA or FLAG tag; assay: LCCA, SPR of light chain tags, L1:L2 DNA 1:3 norm. to 1:1; other light chain m14
[14] = biological target: D3H44 light chain Q124E_S131T_T178Y_T180E, N-terminal HA or FLAG tag; assay: as above
[15] = biological target: D3H44 light chain S131E, N-terminal HA or FLAG tag; assay: as above
[16] = biological target: D3H44 light chain Q124R_T178R, N-terminal HA or FLAG tag; assay: LCCA, SPR of light chain tags, L1:L2 DNA 1:3 norm. to 1:1; other light chain m15
[17] = biological target: D3H44 light chain Q124E_T178E, N-terminal HA or FLAG tag; assay: LCCA, SPR of light chain tags, L1:L2 DNA 1:3 norm. to 1:1; other light chain m17
[18] = biological target: D3H44 light chain S131E, N-terminal HA or FLAG tag; assay: as above
[19] = biological target: D3H44 light chain Q124R_Q160K_T178R, N-terminal HA or FLAG tag; assay: LCCA, SPR of light chain tags, L1:L2 DNA 1:3 norm. to 1:1; other light chain m19
[20] = biological target: D3H44 light chain Q124R_T178R, N-terminal HA or FLAG tag; assay: as above
[21] = biological target: D3H44 light chain Q124R_T178R, N-terminal HA or FLAG tag; assay: LCCA, SPR of light chain tags, L1:L2 DNA 1:3 norm. to 1:1; other light chain m20
[22] = biological target: D3H44 light chain Q124R_Q160K_T178R, N-terminal HA or FLAG tag; assay: LCCA, SPR of light chain tags, L1:L2 DNA 1:3 norm. to 1:1; other light chain m26
[23] = biological target: D3H44 light chain Q124E_S131T_T178Y_T180E, N-terminal HA or FLAG tag; assay: LCCA, SPR of light chain tags, L1:L2 DNA 1:9 norm. to 1:1; other light chain m14
[24] = biological target: D3H44 light chain Q124R_T178R, N-terminal HA or FLAG tag; assay: LCCA, SPR of light chain tags, L1:L2 DNA 1:9 norm. to 1:1; other light chain m15
[25] = biological target: D3H44 light chain Q124E_Q160E_T178E, N-terminal HA or FLAG tag; assay: LCCA, SPR of light chain tags, L1:L2 DNA 1:3 norm. to 1:1; other light chain m17
[26] = biological target: D3H44 light chain Q124E_T178E_T180E, N-terminal HA or FLAG tag; assay: as above
[27] = biological target: D3H44 light chain Q124R_Q160K_T178R, N-terminal HA or FLAG tag; assay: LCCA, SPR of light chain tags, L1:L2 DNA 1:3 norm. to 1:1; other light chain m21
[28] = biological target: D3H44 light chain Q124R_Q160K_T178R, N-terminal HA or FLAG tag; assay: LCCA, SPR of light chain tags, L1:L2 DNA 1:3 norm. to 1:1; other light chain m23
[29] = biological target: D3H44 light chain Q124E_T178E_T180E, N-terminal HA or FLAG tag; assay: LCCA, SPR of light chain tags, L1:L2 DNA 1:9 norm. to 1:1; other light chain m17
[30] = biological target: D3H44 light chain Q124R_Q160K_T178R, N-terminal HA or FLAG tag; assay: LCCA, SPR of light chain tags, L1:L2 DNA 1:9 norm. to 1:1; other light chain m21
[31] = biological target: D3H44 light chain Q124E_V133D, N-terminal HA or FLAG tag; assay: LCCA, SPR of light chain tags, L1:L2 DNA 1:3 norm. to 1:1; other light chain m24
[32] = biological target: D3H44 light chain Q124R, N-terminal HA or FLAG tag; assay: LCCA, SPR of light chain tags, L1:L2 DNA 1:3 norm. to 1:1; other light chain m28
[33] = biological target: D3H44 light chain Q124E_V133D, N-terminal HA or FLAG tag; assay: LCCA, SPR of light chain tags, L1:L2 DNA 1:9 norm. to 1:1; other light chain m24
[34] = biological target: D3H44 light chain Q124R, N-terminal HA or FLAG tag; assay: LCCA, SPR of light chain tags, L1:L2 DNA 1:9 norm. to 1:1; other light chain m28
[35] = biological target: D3H44 light chain Q124E_S176L_T180E, N-terminal HA or FLAG tag; assay: LCCA, SPR of light chain tags, L1:L2 DNA 1:3 norm. to 1:1; other light chain m14
[36] = biological target: D3H44 light chain Q124R_Q160K_T178R, N-terminal HA or FLAG tag; assay: LCCA, SPR of light chain tags, L1:L2 DNA 1:3 norm. to 1:1; other light chain m16
[37] = biological target: D3H44 light chain Q124R_T178R, N-terminal HA or FLAG tag; assay: as above
[38] = biological target: D3H44 light chain Q124E_S176L_T180E, N-terminal HA or FLAG tag; assay: LCCA, SPR of light chain tags, L1:L2 DNA 1:3 norm. to 1:1; other light chain m17
[39] = biological target: D3H44 light chain Q124E_S176L_T180E, N-terminal HA or FLAG tag; assay: LCCA, SPR of light chain tags, L1:L2 DNA 1:9 norm. to 1:1; other light chain m14
[40] = biological target: D3H44 light chain Q124R_T178R, N-terminal HA or FLAG tag; assay: LCCA, SPR of light chain tags, L1:L2 DNA 1:9 norm. to 1:1; other light chain m16
[41] = biological target: D3H44 light chain Q124E_V133W_T180E, N-terminal HA or FLAG tag; assay: LCCA, SPR of light chain tags, L1:L2 DNA 1:3 norm. to 1:1; other light chain m14
[42] = biological target: D3H44 light chain Q124R_T178R, N-terminal HA or FLAG tag; assay: LCCA, SPR of light chain tags, L1:L2 DNA 1:3 norm. to 1:1; other light chain m25

H2L2:H2L1 normalized median ratio [1]: 94%
H2L2:H2L1 normalized median ratio [2]: 6%
H2L2:H2L1 normalized median ratio [3]: 91%
H2L2:H2L1 normalized median ratio [4]: 9%
Substance: D3H44 Fab heavy chain L143K, ABD2-His6 tagged

H2L2:H2L1 normalized median ratio [31]: 91%
H2L2:H2L1 normalized median ratio [32]: 9%
H2L2:H2L1 normalized median ratio [33]: 88%
H2L2:H2L1 normalized median ratio [34]: 12%
Substance: D3H44 Fab heavy chain L143K_D146G, ABD2-His6 tagged

H2L2:H2L1 normalized median ratio [13]: 96%
H2L2:H2L1 normalized median ratio [14]: 94%
H2L2:H2L1 normalized median ratio [35]: 93%
H2L2:H2L1 normalized median ratio [16]: 6%
H2L2:H2L1 normalized median ratio [36]: 2%
H2L2:H2L1 normalized median ratio [37]: 7%
H2L2:H2L1 normalized median ratio [25]: 97%
H2L2:H2L1 normalized median ratio [38]: 98%
H2L2:H2L1 normalized median ratio [17]: 97%
H2L2:H2L1 normalized median ratio [26]: 93%
H2L2:H2L1 normalized median ratio [21]: 4%
H2L2:H2L1 normalized median ratio [27]: 7%
H2L2:H2L1 normalized median ratio [28]: 3%
H2L2:H2L1 normalized median ratio [22]: 3%
H2L2:H2L1 normalized median ratio [23]: 91%
H2L2:H2L1 normalized median ratio [39]: 85%
H2L2:H2L1 normalized median ratio [24]: 9%
H2L2:H2L1 normalized median ratio [40]: 15%
H2L2:H2L1 normalized median ratio [29]: 92%
H2L2:H2L1 normalized median ratio [30]: 8%
Substance: D3H44 Fab heavy chain Q179R, ABD2-His6 tagged

H1L1:H1L2 normalized median ratio [13]: 23%
H1L1:H1L2 normalized median ratio [14]: 17%
H1L1:H1L2 normalized median ratio [35]: 13%
H2L2:H2L1 normalized median ratio [41]: 25%
H2L2:H2L1 normalized median ratio [5]: 29%
H1L1:H1L2 normalized median ratio [16]: 83%
H1L1:H1L2 normalized median scalar value ln(r1/f1) [16]: 1.62
H1L1:H1L2 normalized median ratio [37]: 87%
H1L1:H1L2 normalized median scalar value ln(r1/f1) [37]: 1.9
H1L1:H1L2 normalized median ratio [21]: 77%
H1L1:H1L2 normalized median scalar value ln(r1/f1) [21]: 1.19
H2L2:H2L1 normalized median ratio [6]: 71%
H2L2:H2L1 normalized median ratio [42]: 75%
H1L1:H1L2 normalized median ratio [23]: 21%
H1L1:H1L2 normalized median ratio [39]: 10%
H1L1:H1L2 normalized median ratio [24]: 79%
H1L1:H1L2 normalized median scalar value ln(r1/f1) [24]: 1.33
H1L1:H1L2 normalized median ratio [40]: 90%
H1L1:H1L2 normalized median scalar value ln(r1/f1) [40]: 2.25
Substance: D3H44 Fab heavy chain L143E_K145T_Q179E_S188L, ABD2-His6 tagged

Further lines, the substance ahead of its results:

Substance: D3H44 Fab heavy chain L143A_Q179K, ABD2-His6 tagged
H1L1:H1L2 normalized median ratio [5]: 96%
H1L1:H1L2 normalized median scalar value ln(r1/f1) [5]: 1
H1L1:H1L2 normalized median ratio [6]: 4%

Substance: D3H44 Fab heavy chain L143R, ABD2-His6 tagged
H2L2:H2L1 normalized median ratio [7]: 96%
H2L2:H2L1 normalized median ratio [8]: 4%
H2L2:H2L1 normalized median ratio [9]: 4%
H2L2:H2L1 normalized median ratio [10]: 96%
H2L2:H2L1 normalized median ratio [11]: 93%
H2L2:H2L1 normalized median ratio [12]: 7%

Substance: D3H44 Fab heavy chain S186K, ABD2-His6 tagged
H2L2:H2L1 normalized median ratio [13]: 96%
H2L2:H2L1 normalized median ratio [14]: 95%
H2L2:H2L1 normalized median ratio [15]: 98%
H2L2:H2L1 normalized median ratio [16]: 5%
H2L2:H2L1 normalized median ratio [17]: 98%
H2L2:H2L1 normalized median ratio [18]: 99%
H2L2:H2L1 normalized median ratio [19]: 1%
H2L2:H2L1 normalized median ratio [20]: 2%
H2L2:H2L1 normalized median ratio [21]: 4%
H2L2:H2L1 normalized median ratio [22]: 2%
H2L2:H2L1 normalized median ratio [23]: 89%
H2L2:H2L1 normalized median ratio [24]: 11%

Substance: D3H44 Fab heavy chain L143E_K145T, ABD2-His6 tagged
H1L1:H1L2 normalized median ratio [15]: 54%
H1L1:H1L2 normalized median ratio [25]: 41%
H1L1:H1L2 normalized median ratio [17]: 41%
H1L1:H1L2 normalized median ratio [26]: 18%
H1L1:H1L2 normalized median ratio [7]: 21%
H1L1:H1L2 normalized median ratio [18]: 53%
H1L1:H1L2 normalized median ratio [9]: 79%
H1L1:H1L2 normalized median scalar value ln(r1/f1) [9]: 1.35
H1L1:H1L2 normalized median ratio [19]: 47%
H1L1:H1L2 normalized median scalar value ln(r1/f1) [19]: -0.14
H1L1:H1L2 normalized median ratio [20]: 46%
H1L1:H1L2 normalized median scalar value ln(r1/f1) [20]: -0.16
H1L1:H1L2 normalized median ratio [27]: 82%
H1L1:H1L2 normalized median scalar value ln(r1/f1) [27]: 1.52
H1L1:H1L2 normalized median ratio [28]: 59%
H1L1:H1L2 normalized median scalar value ln(r1/f1) [28]: 0.37
H1L1:H1L2 normalized median ratio [22]: 59%
H1L1:H1L2 normalized median scalar value ln(r1/f1) [22]: 0.36
H1L1:H1L2 normalized median ratio [29]: 19%
H1L1:H1L2 normalized median ratio [11]: 13%
H1L1:H1L2 normalized median ratio [12]: 37%
H1L1:H1L2 normalized median ratio [30]: 81%
H1L1:H1L2 normalized median scalar value ln(r1/f1) [30]: 1.44
